From US20030044847A1, “Methods for anlyzing interactions between proteins in live and intact cells” (priority 2001, published 2003)

B1: IFN-γ: protein secreted by lymphocytes, specifically T-cells and NK-cells; ligand of the IFN-γ receptor complex (protein, UniProt P01579 24-161, looked up)
Interferon gamma: QDPYVKEAENLKKYFNAGHSDVADNGTLFLGILKNWKEESDRKIMQSQIVSFYFKLFKNFKDDQSIQKSVETIKEDMNVKFFNSNKKKRDDFEKLTNYSVTDLNVQRKAIHELIQVMAELSPAAKTGKRKRSQMLFRG

What was measured:
CHO cells = details: absence of the human receptor chains; cited from earlier work
[1] = tested on: Chinese hamster ovary (CHO) q3 cells; test: MHC class I antigen induction in CHO q3 cells transfected with human receptor chains; type: cell-based; details: CHO q3 cells with human receptor chains with or without GFP and EBFP; FIG. 3
Excerpt: The human receptor chains (IFN-γR1 and FL-IFN-γR2) without fluorescent proteins (left panel) and those with the fluorescent proteins (IFN-γR1/EBFP and FL-IFN-γR2/GFP) (right panel) were transfected into Chinese hamster ovary (CHO) q3 cells and MHC class I antigen induction measured in response to hamster and human IFN-γ. In the absence of the human receptor chains, Hu-IFN-γ has no effect on CHO cells (78, 87, 98). […] The CHO q3 cells were derived as follows. Hamster UCH-12 cells containing a stable translocation of human chromosome 3q were obtained from Carol Jones and David Patterson. UCH-12 cells were transfected with plasmid pJYI50R1.1 that encodes the intact HLAB7 gene (101) and the resulting cells designated q3. […] The stably transfected population of q3 cells was grown in F12 media supplemented with 10% FBS without selecting antibiotics. […] After three rounds of selection, individual clones were isolated by limiting dilution and amplified. […] MHC class I antigen induction in response to IFN-γ was performed as described (93).
Stable transformants were made in the CHO-derived cell line q3 by the Lipofectin method and limiting dilution clonal isolation.
Images, Spectra and Activity of human IFN-γR2/GFP and IFN-γR1/BFP transfected into COS-1 cells. […]

[2] = tested on: IFN-γR2/EBFP and IFN-γR2/GFP; test: FRET between IFN-γR2/EBFP and IFN-γR2/GFP in COS-1 cells without IFN-γR1 chain; type: cell-based, human; details: cells expressing only IFN-γR2 chains, no IFN-γR1 chain; FIG. 9 left panels
Excerpt: (§1) FIG. 9 Fluorescence transfer between the FL-IFN-γR2/GFP and FL-IFN-γR2/EBFP chains. Both FL-IFN-γR2/GFP and FL-IFN-γR2/EBFP were transfected into COS-1 cells in the absence (left panels) or presence (right panels) of the unlabeled IFN-γR1 chain. Spectra were taken in the presence and absence of IFN-γ.
(§2) Construction of Vectors to Measure FRET in Cells and Transfections. As noted above, green and blue fluorescent proteins (GFP and BFP) were discovered and developed by a number of groups that enabled these fluorescent protein to be seen and localized in cells; and several groups have begun to use FRET to study the interactions of proteins in cells. In our studies, the IFN-γ receptor complex (FIG. 1) was used as the model system to evaluate the ability of FRET to provide insight into the structure of the receptor and to determine the molecular dynamics after attachment of the ligand IFN-γ to the receptor. In order to carry out these studies, IFN-γR1 and IFN-γR2 chains with BFP (or EBFP) and GFP fused to the carboxyl termini of their intracellular domains were constructed (FIG. 2, top). By fusing the DNA encoding the blue fluorescent protein (BFP) to the DNA encoding the carboxyl terminus of the IFN-γR1 chain and by fusing the DNA encoding GFP to the DNA encoding the carboxyl terminus of the IFN-γR2 chain, the cells produce IFN-γR11/BFP and IFN-γR2/GFP. […]

[3] = target: T1, IFN-γR1/EBFP and IL-10R2/GFP (Homo sapiens, UniProt P15260); test: FRET between mismatched receptor pair IFN-γR1/EBFP and IL-10R2/GFP in COS-1 cells; type: cell-based; details: two-photon excitation at 760 nm; FIG. 7
T1 construct: expressed in transfected cells; host or cells: COS-1
T1 sequence (P15260 18-489): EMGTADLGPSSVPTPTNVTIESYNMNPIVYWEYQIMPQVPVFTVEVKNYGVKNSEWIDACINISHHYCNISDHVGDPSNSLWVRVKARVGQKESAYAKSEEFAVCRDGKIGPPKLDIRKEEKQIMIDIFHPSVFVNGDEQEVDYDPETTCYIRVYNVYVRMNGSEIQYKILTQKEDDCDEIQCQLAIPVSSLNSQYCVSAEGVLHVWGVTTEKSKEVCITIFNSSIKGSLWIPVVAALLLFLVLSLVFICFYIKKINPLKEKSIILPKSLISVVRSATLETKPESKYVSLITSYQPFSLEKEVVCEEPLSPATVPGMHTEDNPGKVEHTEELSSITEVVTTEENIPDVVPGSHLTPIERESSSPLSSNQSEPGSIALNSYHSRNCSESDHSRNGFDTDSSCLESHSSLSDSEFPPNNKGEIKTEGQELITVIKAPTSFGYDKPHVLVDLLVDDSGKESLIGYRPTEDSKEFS
Excerpt: as §2, with “IFN-γR2/GFP. In this way, the BFP and GFP were fused to the intracellular domains of IFN-γR1 and IFN-γR2, respectively (FIG. 2), to monitor interactions among these two receptor chains in intact cells-with and-without IFN-γ treatment.” for “IFN-γR2/GFP.”

[4] = target: T2, IFN-γR2/EBFP, IFN-γR2/GFP and IFN-γR1 chains (Homo sapiens, UniProt P15260); test: FRET between IFN-γR2/EBFP and IFN-γR2/GFP in COS-1 cells with unlabeled IFN-γR1 chain; type: cell-based; details: cells expressing IFN-γR2/EBFP, FIG. 9 right panel
T2 construct: expressed in transfected cells; host or cells: COS-1
T2 sequence (P15260 18-489): T1 sequence (P15260 18-489)
Excerpt: as §1, §2

[5] = target: T3, IFN-γ receptor complex (IFN-γR1/EBFP and IFN-γR2/GFP) (Homo sapiens, UniProt P15260); test: FRET between IFN-γR1/BFP (EBFP) and IFN-γR2/GFP (matched pair) in single live COS-1 cells; type: cell-based
T3 construct: EBFP (enhanced blue fluorescent protein); expressed in transfected cells; host or cells: COS-1
T3 sequence (P15260 18-489): T1 sequence (P15260 18-489)
Excerpt: A mammalian expression vector was used to express human interferon γ receptor chains one and two (IFN-γR1 and IFN-γR2) with blue- and green-fluorescent proteins (BFP and GFP) fused to the carboxyl terminus of the chains, respectively. A tandem vector was used so that both chains were expressed in COS-1 cells under the control of the EF-1 promoter. A single cell expressing both of these chains was used to carry out the experiment to examine the effect of human IFN-γ on the distance between the chains and to determine if the chains were associated prior to addition of ligand. This is accomplished by using FRET.
Construction of Vectors to Measure FRET in Cells and Transfections. As noted above, green and blue fluorescent proteins (GFP and BFP) were discovered and developed by a number of groups that enabled these fluorescent protein to be seen and localized in cells; and several groups have begun to use FRET to study the interactions of proteins in cells. In our studies, the IFN-γ receptor complex (FIG. 1) was used as the model system to evaluate the ability of FRET to provide insight into the structure of the receptor and to determine the molecular dynamics after attachment of the ligand IFN-γ to the receptor. […]

Molecule | effect on CHO cells (CHO cells) | MHC class I antigen induction [1] | change in FRET spectrum in the presence of IFN-γ [2] | effect on the fluorescence spectrum of the mismatched pair [3] | change in FRET spectrum in the presence of IFN-γ [4] | effect on the FRET of the matched receptor pair ([5]; IFN-γ 3500 units/ml added to medium, two-photon excitation at 760 nm, FIG. 8) | FRET signal after treatment of cells with IFN-γ ([5]; single COS-1 cell expressing IFN-γR1 and IFN-γR2 fused to BFP and GFP, excited at 760 nm, FIGS. 12 and 13)
IFN-γ: protein secreted by lymphocytes, specifically T-cells and NK-cells; ligand of the IFN-γ receptor complex | no effect | as effective as that of hamster IFN-γ | no change in the spectrum |  |  |  | 
B1 |  |  |  | did not affect the spectrum | large change in the spectrum | major reduction in the FRET | almost completely abolished
